5 variants from IntAct's records for PubMed 20169075 can be followed below.

Sequences and labels used below:
B1: Dimethyl sulfoxide reductase DmsA (Escherichia coli (strain K12)), P18775 (parent)
chain: MKTKIPDAVLAAEVSRRGLVKTTAIGGLAMASSALTLPFSRIAHAVDSAIPTKSDEKVIWSACTVNCGSRCPLRMHVVDGEIKYVETDNTGDDNYDGLHQVRACLRGRSMRRRVYNPDRLKYPMKRVGARGEGKFERISWEEAYDIIATNMQRLIKEYGNESIYLNYGTGTLGGTMTRSWPPGNTLVARLMNCCGGYLNHYGDYSSAQIAEGLNYTYGGWADGNSPSDIENSKLVVLFGNNPGETRMSGGGVTYYLEQARQKSNARMIIIDPRYTDTGAGREDEWIPIRPGTDAALVNGLAYVMITENLVDQAFLDKYCVGYDEKTLPASAPKNGHYKAYILGEGPDGVAKTPEWASQITGVPADKIIKLAREIGSTKPAFISQGWGPQRHANGEIATRAISMLAILTGNVGINGGNSGAREGSYSLPFVRMPTLENPIQTSISMFMWTDAIERGPEMTALRDGVRGKDKLDVPIKMIWNYAGNCLINQHSEINRTHEILQDDKKCELIVVIDCHMTSSAKYADILLPDCTASEQMDFALDASCGNMSYVIFNDQVIKPRFECKTIYEMTSELAKRLGVEQQFTEGRTQEEWMRHLYAQSREAIPELPTFEEFRKQGIFKKRDPQGHHVAYKAFREDPQANPLTTPSGKIEIYSQALADIAATWELPEGDVIDPLPIYTPGFESYQDPLNKQYPLQLTGFHYKSRVHSTYGNVDVLKAACRQEMWINPLDAQKRGIHNGDKVRIFNDRGEVHIEAKVTPRMMPGVVALGEGAWYDPDAKRVDKGGCINVLTTQRPSPLAKGNPSHTNLVQVEKV
partner: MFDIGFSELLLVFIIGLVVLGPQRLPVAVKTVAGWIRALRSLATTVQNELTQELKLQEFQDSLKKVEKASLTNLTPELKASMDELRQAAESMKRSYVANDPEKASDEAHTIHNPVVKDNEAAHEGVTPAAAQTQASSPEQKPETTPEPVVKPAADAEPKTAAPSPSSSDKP
B2: Sec-independent protein translocase protein TatC (Escherichia coli (strain K12)), P69423 (parent)
chain: MSVEDTQPLITHLIELRKRLLNCIIAVIVIFLCLVYFANDIYHLVSAPLIKQLPQGSTMIATDVASPFFTPIKLTFMVSLILSAPVILYQVWAFIAPALYKHERRLVVPLLVSSSLLFYIGMAFAYFVVFPLAFGFLANTAPEGVQVSTDIASYLSFVMALFMAFGVSFEVPVAIVLLCWMGITSPEDLRKKRPYVLVGAFVVGMLLTPPDVFSQTLLAIPMYCLFEIGVFFSRFYVGKGRNREEENDAEAESEKTEE
B3: Tat proofreading chaperone DmsD (Escherichia coli (strain K12)), P69853 (parent)
chain: MTHFSQQDNFSVAARVLGALFYYAPESAEAAPLVAVLTSDGWETQWPLPEASLAPLVTAFQTQCEETHAQAWQRLFVGPWALPSPPWGSVWLDRESVLFGDSTLALRQWMREKGIQFEMKQNEPEDHFGSLLLMAAWLAENGRQTECEELLAWHLFPWSTRFLDVFIEKAEHPFYRALGELARLTLAQWQSQLLIPVAVKPLFR
B4: Dimethyl sulfoxide reductase DmsA (Escherichia coli (strain K12)), P18775 (parent)
chain: B1 chain
partner: B2 chain

In the first test the parent is B1. The settings on record: with tatb_ecoli tatB.
On to R16K;R17K, for which the “effect of a mutation on the interaction” value is “increasing interaction”.

In a further test the parent is B2. The settings on record: with dmsa_ecoli dmsA, P18775.
As to MSVEDTQPLITHLIELRKRLLNCIIAVIVIFLCLVYFANDIYHLVSAALIKQLPQGSTMIATDVASPFFTPIKLTFMVSLILSAPVILYQVWAFIAPALYKHERRLVVPLLVSSSLLFYIGMAFAYFVVFPLAFGFLANTAPEGVQVSTDIASYLSFVMALFMAFGVSFEVPVAIVLLCWMGITSPEDLRKKRPYVLVGAFVVGMLLTPPDVFSQTLLAIPMYCLFEIGVFFSRFYVGKGRNREEENDAEAESEKTEE [P48A], the “effect of a mutation on the interaction” value was “decreasing interaction”.

As to MSVEDTQPLITHLIELRKRLLNCIIAVIVIFLCLVYFANDIYHLVSAPLIKQLPQGSTMIATDVASPFFTPIKLTFMVSLILSAPVILYQVWAFIAPALYKHRRRLVVPLLVSSSLLFYIGMAFAYFVVFPLAFGFLANTAPEGVQVSTDIASYLSFVMALFMAFGVSFEVPVAIVLLCWMGITSPEDLRKKRPYVLVGAFVVGMLLTPPDVFSQTLLAIPMYCLFEIGVFFSRFYVGKGRNREEENDAEAESEKTEE [E103R], the “effect of a mutation on the interaction” value was “decreasing interaction”.

In another test the parent is B2. The note with it: with dmsd_ecoli dmsD.
On to MSVEDTQPLITHLIELRKRLLNCIIAVIVIFLCLVYFANDIYHLVSAALIKQLPQGSTMIATDVASPFFTPIKLTFMVSLILSAPVILYQVWAFIAPALYKHERRLVVPLLVSSSLLFYIGMAFAYFVVFPLAFGFLANTAPEGVQVSTDIASYLSFVMALFMAFGVSFEVPVAIVLLCWMGITSPEDLRKKRPYVLVGAFVVGMLLTPPDVFSQTLLAIPMYCLFEIGVFFSRFYVGKGRNREEENDAEAESEKTEE [P48A], for which the “effect of a mutation on the interaction” value is given as “decreasing interaction”.

Take MSVEDTQPLITHLIELRKRLLNCIIAVIVIFLCLVYFANDIYHLVSAPLIKQLPQGSTMIATDVASPFFTPIKLTFMVSLILSAPVILYQVWAFIAPALYKHRRRLVVPLLVSSSLLFYIGMAFAYFVVFPLAFGFLANTAPEGVQVSTDIASYLSFVMALFMAFGVSFEVPVAIVLLCWMGITSPEDLRKKRPYVLVGAFVVGMLLTPPDVFSQTLLAIPMYCLFEIGVFFSRFYVGKGRNREEENDAEAESEKTEE [E103R]: the “effect of a mutation on the interaction” value is “disrupting interaction”.

Variants of B3 are the subject of a further test. The settings on record: with dmsa_ecoli dmsA.
For the variant MTHFSQQDNFSVAARVLGALFYYAPESAEAAPLVAVLTSDGWETQWPLPEASLAPLVTAFQTQCEETHAQAHQRYFVGPWALPSPPWGSVWLDRESVLFGDSTLALRQWMREKGIQFEMKQNEPEDHFGSLLLMAAWLAENGRQTECEELLAWHLFPWSTRFLDVFIEKAEHPFYRALGELARLTLAQWQSQLLIPVAVKPLFR [W72H;L75Y], the “effect of a mutation on the interaction” value is given as “increasing interaction”.

Another test covers variants of B4. The note with it: with tatc_ecoli tatC, P69423.
Take R16K;R17K: the “effect of a mutation on the interaction” value is “increasing interaction”.
